Reference: paper PMC3628515 (The Journal of Cell Biology, 2013)

Molecular target: T1, FAP100-HA (FAP100/Mia1p with a triple HA tag, in the rescued strain mia1R) (C. reinhardtii, UniProt A8I4E9 1-576)
T1 sequence (looked up): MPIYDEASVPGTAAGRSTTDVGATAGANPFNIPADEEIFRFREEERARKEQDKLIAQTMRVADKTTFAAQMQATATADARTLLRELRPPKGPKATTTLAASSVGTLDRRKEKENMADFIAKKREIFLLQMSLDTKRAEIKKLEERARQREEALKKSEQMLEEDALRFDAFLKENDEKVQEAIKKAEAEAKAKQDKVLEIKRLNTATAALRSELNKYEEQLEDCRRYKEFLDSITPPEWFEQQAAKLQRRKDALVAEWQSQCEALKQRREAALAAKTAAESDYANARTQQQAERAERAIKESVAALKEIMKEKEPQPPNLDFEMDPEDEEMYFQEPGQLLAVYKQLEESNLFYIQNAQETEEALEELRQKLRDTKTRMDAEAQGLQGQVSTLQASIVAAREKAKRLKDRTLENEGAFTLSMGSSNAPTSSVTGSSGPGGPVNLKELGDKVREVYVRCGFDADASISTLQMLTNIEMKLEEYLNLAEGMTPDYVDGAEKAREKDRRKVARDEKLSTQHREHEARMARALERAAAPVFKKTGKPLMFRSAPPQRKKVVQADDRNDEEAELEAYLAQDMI
Experiment: affinity purification with mass spectrometry

B1: FAP73 (Mia2p), endogenous (natural protein, UniProt M1V4Y8 1-308, looked up)
chain: MDEEGSATARAKMMPQTLVLDHVSPATRLLEKRRQMFEVQEALEAQKQDFNRKEEVFKRREEALKLKDLELQESLIRFSKFLQENDSKRARAEKKANDEIKARIQKEKEIEQLTEVLEELKSEKERILEVLEKNMRYQHYLESVLEVADEYQEVADLLLRHATLSATNADLKDHQRKCSELAEKVRTELQIYVKQKTDEILNLNNQVAKLKTELEGYEAEAMVQEAKKDSSLQIASQRTLEYGQVVLSADNIFNRCRSKSSIGHPAESNPLHQLDVIGNFVSDLGSIIKQFKQEQAKRASLASRAEIE
stoichiometry N: 1.83 to 2.89 FAP73 per FAP100
